Several values for one entry are separate records, joined by “and”; a condition that tells them apart may be missing. Equal values may be shown once. One block for each molecule: values may come before it. Bridge positions count the residues as written; N and C are the ends. Square brackets hold non-standard residues; d marks the D form. Ends that are not written are not given here. Nle = CCCC[C@H](N)C(=O)O; Abu = CC[C@H](N)C(=O)O
Key:
[1] = molecular target: T1, human melanocortin-4 (MC-4) receptors (Homo sapiens, UniProt P32245); type: binding; conditions: HEK 293 cell membranes; about […] 125I-NDP-α-MSH; 180 minutes at 25 C; read-out: hMC4 IC50 (nM) 125I NDP-MSH
T1 construct: expressed in transfected cells; membrane fraction used
T1 sequence (P32245 whole entry): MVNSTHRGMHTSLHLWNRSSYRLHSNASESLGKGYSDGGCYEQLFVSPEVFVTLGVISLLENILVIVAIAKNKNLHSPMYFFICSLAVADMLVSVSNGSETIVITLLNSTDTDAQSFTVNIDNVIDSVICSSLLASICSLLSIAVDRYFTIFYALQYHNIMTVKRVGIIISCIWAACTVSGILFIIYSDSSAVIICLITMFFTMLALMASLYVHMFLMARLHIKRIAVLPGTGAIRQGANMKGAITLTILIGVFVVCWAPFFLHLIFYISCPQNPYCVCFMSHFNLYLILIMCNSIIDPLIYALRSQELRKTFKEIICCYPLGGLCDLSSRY

[2] = molecular target: T2, human melanocortin-3 (MC-3) receptors (Homo sapiens, UniProt P41968); test: Melanocortin receptor binding assay, 125I-NDP-alpha-MSH competition, MC-3; conditions: HEK 293 cell membranes; about […] 125I-NDP-α-MSH; 180 minutes at 25 C; read-out: hMC3 IC50 (nM) 125I NDP-MSH
T2 construct: expressed in transfected cells; membrane fraction used
T2 sequence (P41968 whole entry): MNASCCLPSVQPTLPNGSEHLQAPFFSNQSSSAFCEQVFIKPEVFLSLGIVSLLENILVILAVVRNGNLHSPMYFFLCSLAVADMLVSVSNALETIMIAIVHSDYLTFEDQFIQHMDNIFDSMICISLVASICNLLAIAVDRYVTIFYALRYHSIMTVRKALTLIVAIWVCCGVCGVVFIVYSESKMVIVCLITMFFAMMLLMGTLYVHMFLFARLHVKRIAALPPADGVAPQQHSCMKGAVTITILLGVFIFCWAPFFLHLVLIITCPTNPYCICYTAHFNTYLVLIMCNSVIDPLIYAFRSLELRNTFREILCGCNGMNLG

[3] = molecular target: T2, human melanocortin-3 (MC-3) receptors; test: Melanocortin receptor binding assay, 125I-AGRP competition, MC-3; conditions: Table II; HEK 293 cell membranes; 125I-AGRP 1.10 nM; read-out: hMC3 IC50 (nM) 125I-AGRP
[4] = type: binding, human; conditions: Table II; HEK 293 cell membranes; 125I-AGRP 1.10 nM; read-out: hMC3 IC50 (nM) 125I-AGRP
[5] = molecular target: T3, human melanocortin-4 (MC-4) receptor (human, UniProt P32245); test: displacement of 125I-AGRP, membranes of HEK 293 cells with hMC4 (value column 2; its head prints hMC3)
T3 sequence (P32245 whole entry): as the sequence (P32245 whole entry) above

[6] = molecular target: T4, human melanocortin-3 (MC-3) receptor (human, UniProt P41968); test: displacement of 125I-NDP-alpha-MSH, membranes of HEK 293 cells with hMC3 (value column 3)
[7] = molecular target: T3, human melanocortin-4 (MC-4) receptor; test: displacement of 125I-NDP-alpha-MSH, membranes of HEK 293 cells with hMC4 (value column 1)
[8] = molecular target: T4, human melanocortin-3 (MC-3) receptor; test: displacement of 125I-AGRP, membranes of HEK 293 cells with hMC3 (value column 4)

Molecule: HESCLGQQVPC[Abu]DP[Abu]ATCYCRFFNAFCYCRKL (cysteine pairing not given here) [SEQ ID NO:2]
IC50 [1]: 200 nM
IC50 [2]: > 1000 nM
IC50 [3]: 850 nM

Molecule: C[Abu]DPCAT[Abu]Y[Abu]RFFNAF[Abu]YCRKLGTAMNPCSRT (cysteine pairing not given here) [SEQ ID NO:11]
IC50 [1]: > 1000 nM
IC50 [2]: > 1000 nM
IC50 [4]: 800 nM
IC50 [3]: > 1000 nM

Molecule: C[Abu]DPCAT[Abu]YCRFFNAFCYCRKLGTAMNPCSRT (cysteine pairing not given here) [SEQ ID NO:8]
IC50 [3]: 400 nM

Molecule: AC[Abu]DP[Abu]AS[Abu]QCRFFRSACSCRVL (cysteine pairing not given here) [SEQ ID NO:16]
IC50 [1]: > 1000 nM
IC50 [2]: > 1000 nM
IC50 [4]: 280 nM
IC50 [3]: > 1000 nM

Molecule: HESCLGQQVPC[Abu]DP[Abu]ATCY[Abu]RFFNAF[Abu]YCRKL (cysteine pairing not given here) [SEQ ID NO:5]
IC50 [1]: > 1000 nM
IC50 [2]: > 1000 nM
IC50 [4]: 377 nM
IC50 [3]: > 1000 nM

Molecule: [Abu][Abu]DPCAT[Abu]YCRFFNAFCY[Abu]RKLGTAMNPCSRT (cysteine pairing not given here) [SEQ ID NO:9]
IC50 [1]: 600 nM
IC50 [2]: > 1000 nM
IC50 [4]: 73 nM
IC50 [3]: 700 nM

Molecule: RNSCKPPAPA[Abu][Abu]DP[Abu]ASCQCRFFRSACS[Abu]RVL (cysteine pairing not given here) [SEQ ID NO:14]
IC50 [1]: > 1000 nM
IC50 [2]: > 1000 nM
IC50 [4]: 900 nM
IC50 [3]: > 1000 nM

Molecule: RNSCKPPAPAC[Abu]DP[Abu]ASCQCRFFRSACSCRVL (cysteine pairing not given here) [SEQ ID NO:13]
IC50 [1]: 1000 nM
IC50 [2]: > 1000 nM
IC50 [4]: 60 nM
IC50 [3]: > 1000 nM

Molecule: [Abu][Abu]DPCAS[Abu]QCRFFRSACS[Abu]RVLSLNC (cysteine pairing not given here) [SEQ ID NO:17]
IC50 [1]: > 1000 nM
IC50 [2]: > 1000 nM
IC50 [4]: > 1000 nM
IC50 [3]: > 1000 nM

Molecule: C[Abu]DPCAS[Abu]Q[Abu]RFFRSA[Abu]SCRVLSLNC (cysteine pairing not given here) [SEQ ID NO:18]
IC50 [1]: > 1000 nM
IC50 [2]: > 1000 nM
IC50 [4]: > 1000 nM
IC50 [3]: > 1000 nM

Molecule: HESCLGQQVP[Abu][Abu]DP[Abu]ATCYCRFFNAFCY[Abu]RKL (cysteine pairing not given here) [SEQ ID NO:3]
IC50 [1]: 900 nM
IC50 [2]: > 1000 nM
IC50 [4]: 160 nM
IC50 [3]: > 1000 nM

Molecule: His-Glu-Ser-Abu-Leu-Gly-Gln-Gln-Val-Pro-Cys-Abu-Asp-Pro-Abu-Ala-Thr-Abu-Tyr-Cys-Arg-Phe-Phe-Asn-Ala-Phe-Cys-Tyr-Cys-Arg-Lys-Leu [SEQ ID NO:4]
IC50 [1]: 100 nM
IC50 [2]: 850 nM
IC50 [3]: 90 nM

Molecule: Cys-Abu-Asp-Pro-Abu-Ala-Thr-Abu-Tyr-Cys-Arg-Phe-Phe-Asn-Ala-Phe-Cys-Tyr-Cys-Arg-Lys-Leu-Gly-Thr-Ala-Met-Asn-Pro-Abu-Ser-Arg-Thr [SEQ ID NO:10]
IC50 [1]: 102 nM
IC50 [2]: 500 nM
IC50 [4]: 15 nM
IC50 [3]: 147 nM

Molecule: RNS[Abu]KPPAPAC[Abu]DP[Abu]AS[Abu]QCRFFRSACSCRVL (cysteine pairing not given here) [SEQ ID NO:15]
IC50 [1]: 800 nM
IC50 [2]: > 1000 nM
IC50 [4]: 45 nM
IC50 [3]: > 1000 nM

B9: Md65-AGRP (peptide)
peptide: MRCVRLHESCLGQQVPCCDPCATCYCRFFNAFCYCRKLGTAMNPCSRT
IC50 [6]: 0.002 µM

B13: Mkd5-AGRP (ligand)
chain: APMEGIRRPDQALLPELPGLGLRAPLKKTTAEQAEEDLLQEAQALAEVLDLQDREPRSSRRCVRLHESCLGQQVPCCDPCATCYCRFFNAFCYCRKLGTAMNPCSRT
IC50 [6]: 0.02 µM and 0.01 µM
IC50 [8]: 0.0007 µM

Next, values leading:

IC50 [5]: 0.05 µM
IC50 [6]: > 1 µM
IC50 [7]: 0.2 µM
IC50 [8]: 0.85 µM
B1: peptide of SEQ ID NO:2 (peptide)
peptide: HESCLGQQVPC[Abu]DP[Abu]ATCYCRFFNAFCYCRKL
modifications: disulfide (positions not given here)

IC50 [5]: 0.06 µM
IC50 [6]: > 1 µM
IC50 [7]: 1 µM
IC50 [8]: > 1 µM
B2: peptide of SEQ ID NO:13 (peptide)
peptide: RNSCKPPAPAC[Abu]DP[Abu]ASCQCRFFRSACSCRVL
modifications: disulfide (positions not given here); not fully specified (bridges); printed as Arg-Asn-Ser-Cys-Lys-Pro-Pro-Ala-Pro-Ala-Cys-Abu-Asp-Pro-Abu-Ala-Ser-Cys-Gln-Cys-Arg-Phe-Phe-Arg-Ser-Ala-Cys-Ser-Cys-Arg-Val-Leu; also: three disulfides, pairing not given here

IC50 [5]: 0.8 µM
IC50 [6]: > 1 µM
IC50 [7]: > 1 µM
IC50 [8]: > 1 µM
B3: peptide of SEQ ID NO:11 (peptide)
peptide: C[Abu]DPCAT[Abu]Y[Abu]RFFNAF[Abu]YCRKLGTAMNPCSRT
modifications: disulfide (positions not given here); also: oxidised to disulfides, pairs not given here

IC50 [5]: > 1 µM
IC50 [6]: > 1 µM
IC50 [7]: > 1 µM
IC50 [8]: > 1 µM
B4: peptide of SEQ ID NO:18 (peptide)
peptide: C[Abu]DPCAS[Abu]Q[Abu]RFFRSA[Abu]SCRVLSLNC
modifications: disulfide (positions not given here); also: oxidised to disulfides, pairs not given here

IC50 [5]: 0.045 µM
IC50 [6]: > 1 µM
IC50 [7]: 0.8 µM
IC50 [8]: > 1 µM
B5: peptide of SEQ ID NO:15 (peptide)
peptide: RNS[Abu]KPPAPAC[Abu]DP[Abu]AS[Abu]QCRFFRSACSCRVL
modifications: disulfide (positions not given here)

IC50 [6]: 0.85 µM
IC50 [7]: 0.1 µM
IC50 [8]: 0.09 µM
B6: peptide of SEQ ID NO:4 (peptide)
peptide: HES[Abu]LGQQVPC[Abu]DP[Abu]AT[Abu]YCRFFNAFCYCRKL
modifications: disulfide (positions not given here)

IC50 [6]: > 1 µM
IC50 [7]: > 1 µM
IC50 [8]: > 1 µM
B7: peptide of SEQ ID NO:7 (peptide)
peptide: CRFFGSAC
modifications: disulfide 1-8 (inferred)

IC50 [5]: 0.377 µM
IC50 [6]: > 1 µM
IC50 [7]: > 1 µM
IC50 [8]: > 1 µM
B8: peptide of SEQ ID NO:5 (peptide)
peptide: HESCLGQQVPC[Abu]DP[Abu]ATCY[Abu]RFFNAF[Abu]YCRKL
modifications: disulfide (positions not given here)

IC50 [6]: 0.0009 µM and 0.0007 µM
IC50 [7]: 0.008 µM
B10: NDP-alpha-MSH (peptide)
peptide: Ac-[Nle]H[dF]RWK

IC50 [5]: 0.16 µM
IC50 [6]: > 1 µM
IC50 [7]: 0.9 µM
IC50 [8]: > 1 µM
B11: peptide of SEQ ID NO:3 (peptide)
peptide: HESCLGQQVP[Abu][Abu]DP[Abu]ATCYCRFFNAFCY[Abu]RKL
modifications: disulfide (positions not given here)

IC50 [5]: 0.9 µM
IC50 [6]: > 1 µM
IC50 [7]: > 1 µM
IC50 [8]: > 1 µM
B12: peptide of SEQ ID NO:14 (peptide)
peptide: RNSCKPPAPA[Abu][Abu]DP[Abu]ASCQCRFFRSACS[Abu]RVL
modifications: disulfide (positions not given here); also: oxidised to disulfides, pairs not given here

IC50 [5]: 0.28 µM
IC50 [6]: > 1 µM
IC50 [7]: > 1 µM
IC50 [8]: > 1 µM
B14: peptide of SEQ ID NO:16 (peptide)
peptide: AC[Abu]DP[Abu]AS[Abu]QCRFFRSACSCRVL
modifications: disulfide (positions not given here)

IC50 [6]: > 1 µM
IC50 [7]: > 1 µM
IC50 [8]: > 1 µM
B15: peptide of SEQ ID NO:6 (peptide)
peptide: CRFFNAFC
modifications: disulfide 1-8 (inferred)

IC50 [5]: 0.073 µM
IC50 [6]: > 1 µM
IC50 [7]: 0.6 µM
IC50 [8]: 0.7 µM
B16: peptide of SEQ ID NO:9 (peptide)
peptide: [Abu][Abu]DPCAT[Abu]YCRFFNAFCY[Abu]RKLGTAMNPCSRT
modifications: disulfide (positions not given here); not fully specified (bridges); also: disulfide pairing not given here

IC50 [5]: > 1 µM
IC50 [6]: > 1 µM
IC50 [7]: > 1 µM
IC50 [8]: > 1 µM
B17: peptide of SEQ ID NO:17 (peptide)
peptide: [Abu][Abu]DPCAS[Abu]QCRFFRSACS[Abu]RVLSLNC
modifications: disulfide (positions not given here); also: oxidised to disulfides, pairs not given here

— patent US6303749A, “Agouti and agouti-related peptide analogs” (Amgen Inc., priority 1999, dated 2001)
